{
  "source": "paper PMC8712213",
  "about": "(Nature, 2020)",
  "binders": {"B1": {"name": "6AG9-Fab (Fab, V domains shown)", "VH": "EVQLVESGGGLVQPGGSLRLSCAASGFNVYSSSIHWVRQAPGKGLEWVASISSYSGYTSYADSVKGRFTISADTSKNTAYLQMNSLRAEDTAVYYCAREYWSWYSYSYGIDYWGQGTLVTVSS", "VL": "DIQMTQSPSSLSASVGDRVTITCRASQSVSSAVAWYQQKPGKAPKLLIYSASSLYSGVPSRFSGSRSGTDFTLTISSLQPEDFATYYCQQSYWVGYPITFGQGTKVEIK"}},
  "target": "ALG6 from Saccharomyces cerevisiae (tag-cleaved) (S. cerevisiae, UniProt Q12001)",
  "sequence (Q12001 whole entry)": "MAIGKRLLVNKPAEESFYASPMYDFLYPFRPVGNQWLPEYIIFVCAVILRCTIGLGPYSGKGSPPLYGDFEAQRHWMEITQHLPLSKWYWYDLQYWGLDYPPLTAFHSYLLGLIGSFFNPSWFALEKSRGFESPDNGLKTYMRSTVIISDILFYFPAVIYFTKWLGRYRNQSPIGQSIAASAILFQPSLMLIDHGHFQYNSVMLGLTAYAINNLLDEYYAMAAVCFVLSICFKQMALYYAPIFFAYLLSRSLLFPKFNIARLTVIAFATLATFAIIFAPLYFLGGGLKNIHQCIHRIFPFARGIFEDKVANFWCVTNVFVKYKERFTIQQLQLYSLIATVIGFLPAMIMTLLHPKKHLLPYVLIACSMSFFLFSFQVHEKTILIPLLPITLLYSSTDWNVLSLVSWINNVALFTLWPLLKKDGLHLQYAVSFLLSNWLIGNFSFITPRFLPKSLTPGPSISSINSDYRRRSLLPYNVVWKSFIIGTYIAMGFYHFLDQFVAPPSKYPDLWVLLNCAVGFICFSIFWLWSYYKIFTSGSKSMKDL",
  "test": "SEC",
  "data": [
    {"binder": "B1", "values": [
      {"measurement": "binding result", "value": "binds"}
    ]}
  ]
}
